Data: patent publication US20250026849A1 (ARCELLX, published 2025)
Changes are numbered by the printed parent chain.

T1: P26 (human, UniProt P02771 381-609, limits assumed)
T1 construct: also called AFP p26
T1 sequence: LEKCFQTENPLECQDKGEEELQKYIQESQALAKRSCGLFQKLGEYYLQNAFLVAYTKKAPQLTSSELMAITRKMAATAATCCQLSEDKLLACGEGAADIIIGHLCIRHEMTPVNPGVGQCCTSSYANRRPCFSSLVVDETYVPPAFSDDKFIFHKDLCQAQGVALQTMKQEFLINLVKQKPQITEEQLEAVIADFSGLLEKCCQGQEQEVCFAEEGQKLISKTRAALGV

B1: D domain SEQ ID NO: 930 (designed binder)
chain: MGSWLYFKYNLAVIKHWLEALGGSEAELAIFEMSIADFEYELQWYKGKGNPEVEALRKEAAAIRDELQAYRHN
B2: D domain SEQ ID NO: 931 (designed binder)
chain: MGSWFYFKYELAWIKHWLEALGGSEAELASFETHIAFFEHQLQYYKGKGNPEVEALRKEAAAIRDELQAYRHN
B3: D domain SEQ ID NO: 932 (designed binder)
chain: MGSWADFKWTLAYIKHRLEALGGSEAELAFFEMEIAYFEQSLQNYKGKGNPEVEALRKEAAAIRDELQAYRHN
B4: D domain SEQ ID NO: 933 (designed binder)
chain: MGSWAYFKGQLAYIKSGLEALGGSEAELAYFELRIAYFEHWLQNYKGKGNPEVEALRKEAAAIRDELQAYRHN
B5: D domain SEQ ID NO: 934 (designed binder)
chain: MGSWENFKDTLAWIKEYLEALGGSEAELAGFEHRIAIFEHYLQYYKGKGNPEVEALRKEAAAIRDELQAYRHN
B6: D domain SEQ ID NO: 935 (designed binder)
chain: MGSWVLFKDYLADIKHYLEALGGSEAELANFEHLIANFEGDLQTYKGKGNPEVEALRKEAAAIRDELQAYRHN
B7: D domain SEQ ID NO: 936 (designed binder)
chain: MGSWSLFKHRLANIKVYLEALGGSEAELADFETFIAYFEKDLQEYKGKGNPEVEALRKEAAAIRDELQAYRHN
B8: D domain SEQ ID NO: 937 (designed binder)
chain: MGSWEHFKVELAGIKAYLEALGGSEAELALFEWAIADFESILQDYKGKGNPEVEALRKEAAAIRDELQAYRHN
B9: D domain SEQ ID NO: 938 (designed binder)
chain: B8 chain with E5I, H6Y, V9D, A16K, L30M, W33V, S40A, D44K
B10: D domain SEQ ID NO: 939 (designed binder)
chain: MGSWVLFKQELAWIKWLLEALGGSEAELAAFEEQIARFEHDLQKYKGKGNPEVEALRKEAAAIRDELQAYRHN
B11: D domain SEQ ID NO: 940 (designed binder)
chain: B10 chain with L17Y, E33W, Q34E, R37A, H40Q, D41R, K44I
B12: D domain SEQ ID NO: 941 (designed binder)
chain: B10 chain with V5F, Q9S, L17R, A30Y, E33Y, R37E, H40F, D41W, K44S
B13: D domain SEQ ID NO: 942 (designed binder)
chain: B10 chain with V5L, Q9S, L17Y, A30E, E33W, Q34N, R37E, H40K, D41N
B14: D domain SEQ ID NO: 943 (designed binder)
chain: B10 chain with V5L, Q9S, E10D, L17R, A30E, Q34S, R37M, D41W, K44E
B15: D domain SEQ ID NO: 944 (designed binder)
chain: MGSWLYFKSDLAWIKWRLEALGGSEAELADFEEAIAEFEQALQIYKGKGNPEVEALRKEAAAIRDELQAYRHN
B16: D domain SEQ ID NO: 945 (designed binder)
chain: MGSWKLFKYELAWIKWRLEALGGSEAELADFEASIAQFEKYLQTYKGKGNPEVEALRKEAAAIRDELQAYRHN
B17: D domain SEQ ID NO: 946 (designed binder)
chain: B16 chain with K5Y, Y9N, A33M, S34V, Q37M, K40D, Y41H, T44E
B18: D domain SEQ ID NO: 947 (designed binder)
chain: MGSWVYFKAHLAFIKWELEALGGSEAELANFESTIAEFEKYLQVYKGKGNPEVEALRKEAAAIRDELQAYRHN
B19: D domain SEQ ID NO: 948 (designed binder)
chain: MGSWMYFKSHLAWIKWELEALGGSEAELAFFEDNIAQFEYWLQLYKGKGNPEVEALRKEAAAIRDELQAYRHN

Biological target: T1, P26
Assay: ELISA, format not described
Parameters: unit not given here

Binder	ELISA_avg
B1	13.3
B2	13.7
B3	31.5
B4	11.4
B5	19.2
B6	13.8
B7	19.6
B8	18.1
B9	15.9
B10	29.5
B11	22.5
B12	25.8
B13	25.7
B14	33.3
B15	21.2
B16	23.4
B17	31.1
B18	20.8
B19	19.8
